The supplement of paper PMC11246515
± gives the standard deviation of the averaged measurements.

Assay: total protein half-life in vivo (active degradation + dilution); higher = more stable protein
[1] = E. coli NCM3722 delta-clpP delta-lon delta-hslV, growth: N-lim chemostat, doubling time 6 h
[2] = E. coli NCM3722 delta-clpP, growth: N-lim chemostat, doubling time 6 h
[3] = E. coli NCM3722 delta-hslV, growth: N-lim chemostat, doubling time 6 h
[4] = E. coli NCM3722 delta-lon, growth: N-lim chemostat, doubling time 6 h
[5] = E. coli NCM3722 delta-smpB, growth: N-lim chemostat, doubling time 6 h
[6] = wild type E. coli NCM3722, growth: C-lim chemostat, doubling time 6 h
[7] = wild type E. coli NCM3722, growth: C-lim chemostat, doubling time 12 h
[8] = wild type E. coli NCM3722, growth: N-lim chemostat, doubling time 6 h
[9] = wild type E. coli NCM3722, growth: N-lim chemostat, doubling time 12 h
[10] = wild type E. coli NCM3722, growth: P-lim chemostat, doubling time 6 h
[11] = wild type E. coli NCM3722, growth: P-lim chemostat, doubling time 12 h
[12] = wild type E. coli NCM3722, growth: C-lim chemostat, doubling time 3 h

Which “total protein half-life in vivo” value [1] does the source give for “MPFRSNNPITRDELLSRFFPQYHPVTTFNSGLSGGSFLIEHQGQRFVVRQPHDPDAPQSAFLRQYRALSQLPACIAPKPHLYLRDWMVVDYLPGAVKTYLPDTNELAGLLYYLHQQPRFGWRITLLPLLELYWQQSDPARRTVGWLRMLKRLRKAREPRPLRLSPLHMDVHAGNLVHSASGLKLIDWEYAGDGDIALELAAVWVENTEQHRQLVNDYATRAKIYPAQLWRQVRRWFPWLLMLKAGWFEYRWRQTGDQQFIRLADDTWRQLLIKQ” here?
Its value is 6.3 ± 0.21 h.

And the “total protein half-life in vivo” value [2]?
The value was 6.27 ± 0.31 h.

And the “total protein half-life in vivo” value [3]?
Its value is 6.3 h.

And the “total protein half-life in vivo” value [4]?
Its value is 6.04 ± 0.35 h.

And the “total protein half-life in vivo” value [5]?
Its value is 5.66 h.

What about the “total protein half-life in vivo” value [6] of the same sequence?
The value was 7.13 h.

What about the “total protein half-life in vivo” value [7] of the same sequence?
The value was > 16 h.

What about the “total protein half-life in vivo” value [8] of the same sequence?
The value was 6.24 ± 0.49 h.

And the “total protein half-life in vivo” value [9]?
Its value is 13.6 h.

And the “total protein half-life in vivo” value [10]?
The value was 5.96 h.

What about the “total protein half-life in vivo” value [11] of the same sequence?
Its value is 11.1 h.

With “MPLLDIRNLTIEFKTGDEWVKAVDRVSMTLTEGEIRGLVGESGSGKSLIAKAICGVNKDNWRVTADRMRFDDIDLLRLSARERRKLVGHNVSMIFQEPQSCLDPSERVGRQLMQNIPAWTYKGRWWQRFGWRKRRAIELLHRVGIKDHKDAMRSFPYELTEGECQKVMIAIALANQPRLLIADEPTNSMEPTTQAQIFRLLTRLNQNSNTTILLISHDLQMLSQWADKINVLYCGQTVETAPSKELVTMPHHPYTQALIRAIPDFGSAMPHKSRLNTLPGAIPLLEQLPIGCRLGPRCPYAQRECIVTPRLTGAKNHLYACHFPLNMEKE [P0AAH4]” as the sequence, how does the “total protein half-life in vivo” value [1] read?
The value was 6.47 ± 1 h.

What about the “total protein half-life in vivo” value [2] of the same sequence?
The value was 5.65 ± 0.24 h.

What about the “total protein half-life in vivo” value [3] of the same sequence?
The value was 5.68 ± 0.59 h.

And the “total protein half-life in vivo” value [4]?
The value was 5.96 ± 0.44 h.

What about the “total protein half-life in vivo” value [5] of the same sequence?
Its value is 5.11 ± 0.24 h.

What about the “total protein half-life in vivo” value [12] of the same sequence?
The value was 2.86 ± 0.12 h.

What about the “total protein half-life in vivo” value [6] of the same sequence?
Its value is 5.52 ± 0.2 h.

What about the “total protein half-life in vivo” value [7] of the same sequence?
Its value is 11.19 ± 0.067 h.

What about the “total protein half-life in vivo” value [8] of the same sequence?
The value was 5.58 ± 0.23 h.

What about the “total protein half-life in vivo” value [9] of the same sequence?
Its value is 10.5 ± 0.24 h.

And the “total protein half-life in vivo” value [10]?
The value was 5.43 ± 0.13 h.

And the “total protein half-life in vivo” value [11]?
Its value is 10.9 ± 0.29 h.

Which “total protein half-life in vivo” value [1] does the source give for “MKKTTLALSALALSLGLALSPLSATAAETSSATTAQQMPSLAPMLEKVMPSVVSINVEGSTTVNTPRMPRNFQQFFGDDSPFCQEGSPFQSSPFCQGGQGGNGGGQQQKFMALGSGVIIDADKGYVVTNNHVVDNATVIKVQLSDGRKFDAKMVGKDPRSDIALIQIQNPKNLTAIKMADSDALRVGDYTVAIGNPFGLGETVTSGIVSALGRSGLNAENYENFIQTDAAINRGNSGGALVNLNGELIGINTAILAPDGGNIGIGFAIPSNMVKNLTSQMVEYGQVKRGELGIMGTELNSELAKAMKVDAQRGAFVSQVLPNSSAAKAGIKAGDVITSLNGKPISSFAALRAQVGTMPVGSKLTLGLLRDGKQVNVNLELQQSSQNQVDSSSIFNGIEGAEMSNKGKDQGVVVNNVKTGTPAAQIGLKKGDVIIGANQQAVKNIAELRKVLDSKPSVLALNIQRGDSTIYLLMQ [P0C0V0]” here?
Its value is 5.66 ± 0.5 h.

And the “total protein half-life in vivo” value [2]?
The value was 5.71 ± 0.21 h.

And the “total protein half-life in vivo” value [3]?
The value was 6.05 ± 0.44 h.

What about the “total protein half-life in vivo” value [4] of the same sequence?
The value was 5.85 ± 0.21 h.

And the “total protein half-life in vivo” value [5]?
Its value is 5.87 ± 0.45 h.

And the “total protein half-life in vivo” value [12]?
The value was 2.97 ± 0.12 h.

And the “total protein half-life in vivo” value [6]?
The value was 5.88 ± 0.28 h.

What about the “total protein half-life in vivo” value [7] of the same sequence?
Its value is 10.9 ± 0.37 h.

What about the “total protein half-life in vivo” value [8] of the same sequence?
Its value is 5.86 ± 0.23 h.

And the “total protein half-life in vivo” value [9]?
The value was 11.5 ± 0.38 h.

And the “total protein half-life in vivo” value [10]?
Its value is 5.75 ± 0.2 h.

And the “total protein half-life in vivo” value [11]?
Its value is 11.4 ± 0.4 h.

With “MIDLRSDTVTRPSRAMLEAMMAAPVGDDVYGDDPTVNALQDYAAELSGKEAAIFLPTGTQANLVALLSHCERGEEYIVGQAAHNYLFEAGGAAVLGSIQPQPIDAAADGTLPLDKVAMKIKPDDIHFARTKLLSLENTHNGKVLPREYLKEAWEFTRERNLALHVDGARIFNAVVAYGCELKEITQYCDSFTICLSKGLGTPVGSLLVGNRDYIKRAIRWRKMTGGGMRQSGILAAAGIYALKNNVARLQEDHDNAAWMAEQLREAGADVMRQDTNMLFVRVGEENAAALGEYMKARNVLINASPIVRLVTHLDVSREQLAEVAAHWRAFLAR” as the sequence, how does the “total protein half-life in vivo” value [1] read?
Its value is 5.25 ± 0.99 h.

And the “total protein half-life in vivo” value [3]?
The value was 4.88 ± 0.86 h.

What about the “total protein half-life in vivo” value [4] of the same sequence?
Its value is 5.53 ± 0.73 h.

And the “total protein half-life in vivo” value [5]?
The value was 4.18 ± 0.28 h.

And the “total protein half-life in vivo” value [12]?
The value was 3.162 ± 0.023 h.

And the “total protein half-life in vivo” value [6]?
Its value is 5.88 ± 0.24 h.

What about the “total protein half-life in vivo” value [7] of the same sequence?
Its value is 10.8 ± 0.43 h.

And the “total protein half-life in vivo” value [8]?
Its value is 4.39 ± 0.4 h.

And the “total protein half-life in vivo” value [9]?
Its value is 6.44 ± 0.27 h.

What about the “total protein half-life in vivo” value [10] of the same sequence?
Its value is 5.87 ± 0.12 h.

And the “total protein half-life in vivo” value [11]?
Its value is 11.2 ± 1.5 h.

With “MIDYTAAGFTLLQGAHLYAPEDRGICDVLVANGKIIAVASNIPSDIVPNCTVVDLSGQILCPGFIDQHVHLIGGGGEAGPTTRTPEVALSRLTEAGVTSVVGLLGTDSISRHPESLLAKTRALNEEGISAWMLTGAYHVPSRTITGSVEKDVAIIDRVIGVKCAISDHRSAAPDVYHLANMAAESRVGGLLGGKPGVTVFHMGDSKKALQPIYDLLENCDVPISKLLPTHVNRNVPLFEQALEFARKGGTIDITSSIDEPVAPAEGIARAVQAGIPLARVTLSSDGNGSQPFFDDEGNLTHIGVAGFETLLETVQVLVKDYDFSISDALRPLTSSVAGFLNLTGKGEILPGNDADLLVMTPELRIEQVYARGKLMVKDGKACVKGTFETA” as the sequence, how does the “total protein half-life in vivo” value [1] read?
Its value is 6.21 ± 0.27 h.

And the “total protein half-life in vivo” value [2]?
Its value is 5.9 ± 0.13 h.

And the “total protein half-life in vivo” value [3]?
The value was 5.497 ± 0.0056 h.

What about the “total protein half-life in vivo” value [4] of the same sequence?
The value was 5.68 ± 0.064 h.

And the “total protein half-life in vivo” value [5]?
Its value is 5.3 ± 0.21 h.

What about the “total protein half-life in vivo” value [12] of the same sequence?
Its value is 2.93 ± 0.1 h.

And the “total protein half-life in vivo” value [6]?
The value was 5.97 ± 0.45 h.

And the “total protein half-life in vivo” value [7]?
The value was 12.8 ± 0.66 h.

And the “total protein half-life in vivo” value [8]?
Its value is 5.29 ± 0.25 h.

And the “total protein half-life in vivo” value [9]?
Its value is 9.01 ± 0.33 h.

And the “total protein half-life in vivo” value [10]?
Its value is 6.11 ± 0.39 h.

What about the “total protein half-life in vivo” value [11] of the same sequence?
Its value is 13.1 ± 0.29 h.

Which “total protein half-life in vivo” value [1] does the source give for “MLARGKTNLKIEEIRMHKHHEIHRVKPLMPALCRIRQGKKVINWETHTLTVDNNQIILFPCGYEFYIENYPEAGLYLAEMLYLPIDLIESFQKLYTVTDQIRNKTSFFLPQNPELIYCWEQLKTSVSRGFSTKIQEHLAMGVLLSLGVNHVNHLLLSYSKQSLISRCYNLLLSEPGTKWTANKVARYLYISVSTLHRRLASEGVSFQSILDDVRLNNALSAIQTTVKPISEIARENGYKCPSRFTERFHNRFNITPREIRKASRE” here?
Its value is 5.01 ± 0.22 h.

What about the “total protein half-life in vivo” value [2] of the same sequence?
Its value is > 8 h.

And the “total protein half-life in vivo” value [5]?
Its value is 3.44 ± 0.094 h.

And the “total protein half-life in vivo” value [12]?
Its value is 2 ± 0.38 h.

And the “total protein half-life in vivo” value [6]?
The value was 3.83 ± 0.19 h.

What about the “total protein half-life in vivo” value [7] of the same sequence?
The value was 6.07 ± 1.8 h.

What about the “total protein half-life in vivo” value [8] of the same sequence?
Its value is 4.12 ± 0.23 h.

What about the “total protein half-life in vivo” value [9] of the same sequence?
The value was 7.29 ± 0.94 h.

And the “total protein half-life in vivo” value [10]?
Its value is 3.65 ± 1.5 h.

What about the “total protein half-life in vivo” value [11] of the same sequence?
Its value is 5.86 ± 1.1 h.
